Assay results: paper PMC6325770

Molecular target: enhanced green fluorescent protein-labelled G-protein-coupled receptor kinase-interacting protein 1 (GIT1) (UniProt Q9Y2X7)
Test: MST; enhanced green fluorescent protein-labelled GIT1 in human embryonic kidney 293 cell lysate at constant 20 nmol/L, serial dilution of purified CLIC4; Monolith NT.115

Chain of UniProt Q9Y2X7 (Q9Y2X7 whole entry): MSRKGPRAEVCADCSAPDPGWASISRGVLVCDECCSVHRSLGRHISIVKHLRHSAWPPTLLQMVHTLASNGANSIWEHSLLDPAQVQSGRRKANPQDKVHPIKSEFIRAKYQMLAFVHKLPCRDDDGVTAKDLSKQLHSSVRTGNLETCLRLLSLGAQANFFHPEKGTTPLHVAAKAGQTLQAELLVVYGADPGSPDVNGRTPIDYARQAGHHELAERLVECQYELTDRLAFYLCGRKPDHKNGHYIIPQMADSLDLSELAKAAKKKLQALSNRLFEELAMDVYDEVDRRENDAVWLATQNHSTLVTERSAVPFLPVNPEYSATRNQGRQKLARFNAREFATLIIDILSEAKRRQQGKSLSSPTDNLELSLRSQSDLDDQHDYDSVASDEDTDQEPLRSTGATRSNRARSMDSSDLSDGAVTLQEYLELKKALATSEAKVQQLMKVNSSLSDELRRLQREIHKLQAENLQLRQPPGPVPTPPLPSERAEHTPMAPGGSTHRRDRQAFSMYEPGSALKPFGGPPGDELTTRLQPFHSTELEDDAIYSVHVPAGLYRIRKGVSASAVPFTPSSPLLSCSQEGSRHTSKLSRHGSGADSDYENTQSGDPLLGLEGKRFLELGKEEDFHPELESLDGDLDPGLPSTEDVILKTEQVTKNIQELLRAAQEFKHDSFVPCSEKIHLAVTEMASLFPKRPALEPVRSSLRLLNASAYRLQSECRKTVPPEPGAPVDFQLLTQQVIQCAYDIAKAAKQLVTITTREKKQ

Kd: 1800 nM
Substance: purified CLIC4 (ab104744; Abcam) (from UniProt Q9Y696 1-253) (natural protein)
